# Measurements published in patent publication US20190038660.
# Test system: ZF6-DBD (Artificial Sequence)
# Assay: cell_activity
# Conditions: in vivo porcine retina, AAV8 DBR-R vector 1x10^12 gc, hRHO-s-ΔZF6 promoter, qPCR 2 months after delivery; binding inferred from repression, not measured …
# Chain of ZF6-DBD (Artificial Sequence) (chain, as listed by the source): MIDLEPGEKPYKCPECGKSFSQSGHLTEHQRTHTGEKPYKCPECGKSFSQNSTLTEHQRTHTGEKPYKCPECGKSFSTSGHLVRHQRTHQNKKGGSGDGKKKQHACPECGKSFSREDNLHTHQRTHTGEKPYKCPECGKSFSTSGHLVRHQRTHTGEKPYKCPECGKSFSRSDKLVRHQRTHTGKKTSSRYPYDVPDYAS
substance,measurement,value
porcine Rhodopsin proximal promoter (ZF6 target region),activity (% repression of Rho transcript),35
